These results are taken from article PMC2873993, “Comparative Therapeutic Effects of Velaglucerase Alfa and Imiglucerase in a Gaucher Disease Mouse Model” (PLoS ONE, 2010).

Residue numbers refer to the chain shown, from its start. Like-named read-outs stand apart in the source and are kept apart here.

For data set [1], the system named is 9 V/null mice. Kind of data set: Mouse anti-human GCase IgG ELISA. In general terms: In an ELISA, binding on a coated surface is turned into a signal by an enzyme label.
Data set [2] deals with 9 V/null mice. Kind of data set: Total serum IgE ELISA in mice that died after injection. The note with it: mice that died after 4 or 5 injections of 60 U/kg/wk, n = 3.
Data set [3] can be described thus: Tissue GCase activity, CRIM and CRIM-SA (liver, spleen, lung) after i.v. bolus. The note with it: for Recovery of injected activity in liver / Recovery of injected activity in lung / Recovery of injected activity in spleen: 60 U/kg bolus, % ± SE; for peak liver activity relative to WT: 20 min.
In data set [4] the test system is 9 V/null mice. The following applies: mouse, in vivo.
The next data set has as its system patients. The following applies: human, in vivo; cited from earlier work.
The mark [5] stands for this setting: 5-wk 9 V/null mice, peak 20 min.
Setting [6] is: 5-wk 9 V/null mice, 60 U/kg i.v.
Where [7] appears, read: 20-wk 9 V/null mice, peak 20 min.
Where [8] appears, read: 20-wk 9 V/null mice, 60 U/kg i.v.

B1: velaglucerase alfa (protein)
chain: ARPCIPKSFGYSSVVCVCNATYCDSFDPPTFPALGTFSRYESTRSGRRMELSMGPIQANHTGTGLLLTLQPEQKFQKVKGFGGAMTDAAALNILALSPPAQNLLLKSYFSEEGIGYNIIRVPMASCDFSIRTYTYADTPDDFQLHNFSLPEEDTKLKIPLIHRALQLAQRPVSLLASPWTSPTWLKTNGAVNGKGSLKGQPGDIYHQTWARYFVKFLDAYAEHKLQFWAVTAENEPSAGLLSGYPFQCLGFTPEHQRDFIARDLGPTLANSTHHNVRLLMLDDQRLLLPHWAKVVLTDPEAAKYVHGIAVHWYLDFLAPAKATLGETHRLFPNTMLFASEACVGSKFWEQSVRLGSWDRGMQYSHSIITNLLYHVVGWTDWNLALNPEGGPNWVRNFVDSPIIVDITKDTFYKQPMFYHLGHFSKFIPEGSQRVGLVASQKNDLDAVALMHPDGSAVVVVLNRSSKDVPLTIKDPAVGFLETISPGYSIHTYLWRRQ
modifications: N-linked oligosaccharides with higher α-mannosyl content (predominant number of mannoses is 9)
With B1, the “serum anti-GCase IgG signals” value in the data set on 9 V/null mice [1] (5 or 15 U/kg/wk, each bleed) is listed as “at background or very low levels”. Besides, the “injected mice with increased serum anti-GCase IgG” value with 9 V/null mice [1] (60 U/kg/wk, by the 4th injection) is more than 50%. In addition, the “increase of serum anti-GCase IgG levels above background” value with 9 V/null mice [1] (60 U/kg/wk, by the 4th injection, at ∼3×10^3 dilution) is approximately 3 fold. Further, in the data set on 9 V/null mice [2], the “Total serum IgE levels” value was in the range of 46.4 to 234.9 ng/mL. Moreover, in data set [3] (setting [5]), the “Recovery of injected activity in liver” value came to 57.53±1.35% and the “Recovery of injected activity in lung” value is 0.1±0.01%. The “Recovery of injected activity in spleen” value in data set [3] (5-wk 9 V/null mice, peak 40 min) is given as 1.86±0.06%. For the same molecule, in data set [3] (setting [6]), the “drop of liver activity within 40 min” value is “about 60%”, the “liver GCase activity by 42 h” value is reported as 13–18 % of WT, the “peak spleen activity lower than in 20-wk mice” value is given as 2- to 3 fold and the “splenic CRIM-SA” value is reported as 0.2–0.8×10^6 nmoles/h/mg enzyme protein. Also, in data set [3] (setting [6]), the “time liver activity remained at ≥WT level” value was in the range of 70 to 80 min, the “t½ of CRIM levels in spleen” value was approximately 2 h, the “t½ of activity disappearance in liver” value was “about 60 min” and the “peak liver activity relative to WT” value is listed as approximately 2.5 fold. For the same molecule, in data set [3] (setting [7]), the “Recovery of injected activity in liver” value is reported as 60.36±2.01%, the “Recovery of injected activity in lung” value was 0.04±0.01% and the “Recovery of injected activity in spleen” value is 2.62±0.08%. For the same molecule, in data set [3] (setting [8]), the “decrease of liver GCase activity within 40 min” value is approximately 30%, the “decrease of spleen enzyme activity by 40 min” value is recorded as approximately 40%, the “liver GCase activity by 42 h” value is 13–15 % of WT and the “time liver activity remained at or above WT levels” value is given as 3 h. Also, in data set [3] (setting [8]), the “time spleen activity remained at ≥WT levels” value is approximately 3.5 h, the “t½ of CRIM disappearance in liver” value was 1.5 to 1.83 h, the “t½ of GCase activity disappearance in liver” value is approximately 1.67 h and the “t½ of GCase protein disappearance in spleen” value lay in the range of 1.0 to 1.5 h. Moreover, the “peak liver activity relative to WT” value in data set [3] (setting [8]) is 2.5- to 3.5 fold. Besides, the “peak spleen activity relative to WT” value in data set [3] (20-wk 9 V/null mice, 20 min post-injection, 60 U/kg i.v.) was 3- to 4.5 fold. Further, in data set [3] (20-wk 9 V/null mice, as restated), the “time liver activity remained at ≥WT level” value is approximately 180 min. Further, the “enzyme recovered in spleens and lungs” value in data set [3] (after bolus i.v. injections, abstract) is listed as less than 5%. Moreover, the “injected enzyme recovered from the liver” value in data set [3] (intravenous bolus, discussion) is not below 60%.

B2: imiglucerase (protein)
chain: B1 chain with R495H
modifications: short N-linked oligosaccharide chains with ~3 exposed α-mannosyl residues
On to B2, for which the “injected mice with increased serum anti-GCase IgG” value in the data set on 9 V/null mice [4] is more than 50%. In the data set on patients, the “documented IgE-mediated or anaphylactic reactions” value is reported as less than 1% and the “patients who developed an IgG antibody response” value is 13–15%.
